Patent publication US9273095B2, “Antibiotic peptide and preparation method therefor and application therefor” (priority 2011, dated 2016)

Key:
[1] = RP-HPLC temperature profiling: hydrophobicity and self-association; assay type: physicochemical
Procedure: Peptides are analyzed on an Agilent 1200 series liquid chromatograph (Little Falls, Del.). Runs are performed on a Zorbax 300 SB-C8 column (150×4.6 mm I.D.; 5 μm particle size, 300 Å pore size) from Agilent Technologies using linear AB gradient (1% acetonitrile/min) and a flow rate of 1 ml/min, where solvent A is 0.05% aqueous TFA, pH 2 and solvent B is 0.05% TFA in acetonitrile.
We further use temperature profiling during RP-HPLC to determine the self-association ability of various analogs of PL-13 (SEQ ID NO: 1) which would occur through interaction of the non-polar faces of these amphipathic peptides α-helices. We use 50% TFE aqueous acetonitrile and hydrophobic conditions in the reversed-phase column (hydrophobic stationary phase and the hydrophobic organic solvent in the mobile phase) since the hydrophobic environment of a reversed-phase column also could induce α-helical structure. Since its introduction, the technique of RP-HPLC temperature profiling has been applied on several types of molecules, including cyclic β-sheet peptides, monomeric α-helices and α-helices that dimerize, as well as α-helices that dimerize to form coiled-coils. Although peptides are eluted from a reversed-phase column mainly by an adsorption/desorption mechanism, even a peptide strongly bound to a hydrophobic stationary phase will partition between the matrix and the mobile phase when the acetonitrile content becomes high enough during gradient elution. In summary, the mechanism is based on four assumptions: (i) at low temperature, just as an amphipathic α-helical peptide is able to dimerize in aqueous solution (through its hydrophobic, non-polar face), it will dimerize in solution during partitioning in reversed-phase chromatography; (ii) at higher temperatures, the monomer-dimer equilibrium favors the monomer as the dimer is disrupted; (iii) at sufficiently high temperatures, only monomer is present in solution; and (iv) peptide is always bound in its monomeric helical form to the hydrophobic stationary phase, i.e., the dimer can only be present in solution and disruption of the dimer is required for rebinding to the RP-HPLC matrix.
([θ]222=−3,950). Since peptide C is a monomeric random coil peptide in both aqueous and hydrophobic media, its retention behavior over the temperature range 5-80° C. represents only general temperature effects on peptide retention behavior, i.e., a linear decrease in peptide retention time with increasing temperature due to greater solute diffusivity and enhanced mass transfer between the stationary and mobile phases at higher temperatures. Thus, after normalization to the retention times of peptide C, the retention behavior of the peptides only represents peptide self-association ability. Note that the higher the PA value, the greater the self-association ability. The order of peptide self-association ability of the three pairs of peptide enantiomers is identical to the order of peptide hydrophobicity. Apart from the decrease in retention time due to the general temperature effects noted above, destruction of the α-helix will also occur with increasing temperature, resulting in reduced retention times as the peptides become increasingly random coils.
The retention time data for the peptides is shown in Table 6 which records retention times at 5° C., the maximal retention times and retention times at 80° C. during the temperature profiling. Temperatures of 5-80° C. are the lower and upper temperature limits of temperature profiling in RP-HPLC, representing polymerization of the peptides at 5° C. and the monomerization of peptides at 80° C. due to denaturation of peptides by high temperature and dissociation of the polymers. The maximal retention times represent the threshold points at which peptides totally transform from polymeric to monomeric form. […]

[2] = Circular dichroism (CD) spectroscopy, helical structure; assay type: physicochemical; conditions: 50% trifluoroethanol (TFE), 5° C.

Ac-ELEKGGLEGEKGGKELEK-amide (Ac-ELEKGGLEGEKGGKELEK-NH2) [reference compound]
tR(min) 5° C. ([1]; RP-HPLC temperature profiling, 5° C.): 22.56 min
tR(min) 80° C. ([1]; RP-HPLC temperature profiling, 80° C.): 19.91 min
tR(min) Max ([1]; maximal retention time during temperature profiling 5-80° C.): 22.56 min
[θ]222 [2]: −3,950
